The source of these data is patent US20210388087A1 (Chugai, published 2021).

Sequences and labels used below:
B1: H183/L072 VH A100M (antibody, name in Kabat numbering, V domains shown)
VH: QVQLVESGGGLVQPGRSLRLSCAASGFTFSNAWMHWVRQAPGKGLEWVAQIKDKGNAYAAYYAPSVKGRFTISRDDSKNSIYLQMNSLKTEDTAVYYCHYVHYASMSTVLPAFGVDAWGQGTTVTVSS
VL: DIVMTQSPLSLPVTPGEPASISCQASQELVHMNRNTYLHWYQQKPGQAPRLLIYKVSNRFPGVPDRFSGSGSGTDFTLKISRVEAEDVGVYYCAQGTSVPFTFGQGTKLEIK
B2: H183/L072 VH A100fM (antibody, name in Kabat numbering, V domains shown)
VH: QVQLVESGGGLVQPGRSLRLSCAASGFTFSNAWMHWVRQAPGKGLEWVAQIKDKGNAYAAYYAPSVKGRFTISRDDSKNSIYLQMNSLKTEDTAVYYCHYVHYASASTVLPMFGVDAWGQGTTVTVSS
VL: DIVMTQSPLSLPVTPGEPASISCQASQELVHMNRNTYLHWYQQKPGQAPRLLIYKVSNRFPGVPDRFSGSGSGTDFTLKISRVEAEDVGVYYCAQGTSVPFTFGQGTKLEIK
B3: H183/L072 VH F27E (antibody, name in Kabat numbering, V domains shown)
VH: QVQLVESGGGLVQPGRSLRLSCAASGETFSNAWMHWVRQAPGKGLEWVAQIKDKGNAYAAYYAPSVKGRFTISRDDSKNSIYLQMNSLKTEDTAVYYCHYVHYASASTVLPAFGVDAWGQGTTVTVSS
VL: DIVMTQSPLSLPVTPGEPASISCQASQELVHMNRNTYLHWYQQKPGQAPRLLIYKVSNRFPGVPDRFSGSGSGTDFTLKISRVEAEDVGVYYCAQGTSVPFTFGQGTKLEIK
B4: H183/L072 VH F27H (antibody, name in Kabat numbering, V domains shown)
VH: QVQLVESGGGLVQPGRSLRLSCAASGHTFSNAWMHWVRQAPGKGLEWVAQIKDKGNAYAAYYAPSVKGRFTISRDDSKNSIYLQMNSLKTEDTAVYYCHYVHYASASTVLPAFGVDAWGQGTTVTVSS
VL: DIVMTQSPLSLPVTPGEPASISCQASQELVHMNRNTYLHWYQQKPGQAPRLLIYKVSNRFPGVPDRFSGSGSGTDFTLKISRVEAEDVGVYYCAQGTSVPFTFGQGTKLEIK
B5: H183/L072 VH D101L (antibody, name in Kabat numbering, V domains shown)
VH: QVQLVESGGGLVQPGRSLRLSCAASGFTFSNAWMHWVRQAPGKGLEWVAQIKDKGNAYAAYYAPSVKGRFTISRDDSKNSIYLQMNSLKTEDTAVYYCHYVHYASASTVLPAFGVLAWGQGTTVTVSS
VL: DIVMTQSPLSLPVTPGEPASISCQASQELVHMNRNTYLHWYQQKPGQAPRLLIYKVSNRFPGVPDRFSGSGSGTDFTLKISRVEAEDVGVYYCAQGTSVPFTFGQGTKLEIK
B6: H183/L072 VH D101I (antibody, name in Kabat numbering, V domains shown)
VH: QVQLVESGGGLVQPGRSLRLSCAASGFTFSNAWMHWVRQAPGKGLEWVAQIKDKGNAYAAYYAPSVKGRFTISRDDSKNSIYLQMNSLKTEDTAVYYCHYVHYASASTVLPAFGVIAWGQGTTVTVSS
VL: DIVMTQSPLSLPVTPGEPASISCQASQELVHMNRNTYLHWYQQKPGQAPRLLIYKVSNRFPGVPDRFSGSGSGTDFTLKISRVEAEDVGVYYCAQGTSVPFTFGQGTKLEIK
B7: H183/L072 VH F27K (antibody, name in Kabat numbering, V domains shown)
VH: QVQLVESGGGLVQPGRSLRLSCAASGKTFSNAWMHWVRQAPGKGLEWVAQIKDKGNAYAAYYAPSVKGRFTISRDDSKNSIYLQMNSLKTEDTAVYYCHYVHYASASTVLPAFGVDAWGQGTTVTVSS
VL: DIVMTQSPLSLPVTPGEPASISCQASQELVHMNRNTYLHWYQQKPGQAPRLLIYKVSNRFPGVPDRFSGSGSGTDFTLKISRVEAEDVGVYYCAQGTSVPFTFGQGTKLEIK
B8: H183/L072 VH F27D (antibody, name in Kabat numbering, V domains shown)
VH: QVQLVESGGGLVQPGRSLRLSCAASGDTFSNAWMHWVRQAPGKGLEWVAQIKDKGNAYAAYYAPSVKGRFTISRDDSKNSIYLQMNSLKTEDTAVYYCHYVHYASASTVLPAFGVDAWGQGTTVTVSS
VL: DIVMTQSPLSLPVTPGEPASISCQASQELVHMNRNTYLHWYQQKPGQAPRLLIYKVSNRFPGVPDRFSGSGSGTDFTLKISRVEAEDVGVYYCAQGTSVPFTFGQGTKLEIK
B9: H183/L072 VH A100fP (antibody, name in Kabat numbering, V domains shown)
VH: QVQLVESGGGLVQPGRSLRLSCAASGFTFSNAWMHWVRQAPGKGLEWVAQIKDKGNAYAAYYAPSVKGRFTISRDDSKNSIYLQMNSLKTEDTAVYYCHYVHYASASTVLPPFGVDAWGQGTTVTVSS
VL: DIVMTQSPLSLPVTPGEPASISCQASQELVHMNRNTYLHWYQQKPGQAPRLLIYKVSNRFPGVPDRFSGSGSGTDFTLKISRVEAEDVGVYYCAQGTSVPFTFGQGTKLEIK
B10: H183/L072 VH A100fI (antibody, name in Kabat numbering, V domains shown)
VH: QVQLVESGGGLVQPGRSLRLSCAASGFTFSNAWMHWVRQAPGKGLEWVAQIKDKGNAYAAYYAPSVKGRFTISRDDSKNSIYLQMNSLKTEDTAVYYCHYVHYASASTVLPIFGVDAWGQGTTVTVSS
VL: DIVMTQSPLSLPVTPGEPASISCQASQELVHMNRNTYLHWYQQKPGQAPRLLIYKVSNRFPGVPDRFSGSGSGTDFTLKISRVEAEDVGVYYCAQGTSVPFTFGQGTKLEIK
B11: H183/L072 VH A102I (antibody, name in Kabat numbering, V domains shown)
VH: QVQLVESGGGLVQPGRSLRLSCAASGFTFSNAWMHWVRQAPGKGLEWVAQIKDKGNAYAAYYAPSVKGRFTISRDDSKNSIYLQMNSLKTEDTAVYYCHYVHYASASTVLPAFGVDIWGQGTTVTVSS
VL: DIVMTQSPLSLPVTPGEPASISCQASQELVHMNRNTYLHWYQQKPGQAPRLLIYKVSNRFPGVPDRFSGSGSGTDFTLKISRVEAEDVGVYYCAQGTSVPFTFGQGTKLEIK
B12: H183/L072 VH D101M (antibody, name in Kabat numbering, V domains shown)
VH: QVQLVESGGGLVQPGRSLRLSCAASGFTFSNAWMHWVRQAPGKGLEWVAQIKDKGNAYAAYYAPSVKGRFTISRDDSKNSIYLQMNSLKTEDTAVYYCHYVHYASASTVLPAFGVMAWGQGTTVTVSS
VL: DIVMTQSPLSLPVTPGEPASISCQASQELVHMNRNTYLHWYQQKPGQAPRLLIYKVSNRFPGVPDRFSGSGSGTDFTLKISRVEAEDVGVYYCAQGTSVPFTFGQGTKLEIK
B13: H183/L072 VH A102L (antibody, name in Kabat numbering, V domains shown)
VH: QVQLVESGGGLVQPGRSLRLSCAASGFTFSNAWMHWVRQAPGKGLEWVAQIKDKGNAYAAYYAPSVKGRFTISRDDSKNSIYLQMNSLKTEDTAVYYCHYVHYASASTVLPAFGVDLWGQGTTVTVSS
VL: DIVMTQSPLSLPVTPGEPASISCQASQELVHMNRNTYLHWYQQKPGQAPRLLIYKVSNRFPGVPDRFSGSGSGTDFTLKISRVEAEDVGVYYCAQGTSVPFTFGQGTKLEIK
B14: H183/L072 VH F27L (antibody, name in Kabat numbering, V domains shown)
VH: QVQLVESGGGLVQPGRSLRLSCAASGLTFSNAWMHWVRQAPGKGLEWVAQIKDKGNAYAAYYAPSVKGRFTISRDDSKNSIYLQMNSLKTEDTAVYYCHYVHYASASTVLPAFGVDAWGQGTTVTVSS
VL: DIVMTQSPLSLPVTPGEPASISCQASQELVHMNRNTYLHWYQQKPGQAPRLLIYKVSNRFPGVPDRFSGSGSGTDFTLKISRVEAEDVGVYYCAQGTSVPFTFGQGTKLEIK
B15: H183/L072 VH F27G (antibody, name in Kabat numbering, V domains shown)
VH: QVQLVESGGGLVQPGRSLRLSCAASGGTFSNAWMHWVRQAPGKGLEWVAQIKDKGNAYAAYYAPSVKGRFTISRDDSKNSIYLQMNSLKTEDTAVYYCHYVHYASASTVLPAFGVDAWGQGTTVTVSS
VL: DIVMTQSPLSLPVTPGEPASISCQASQELVHMNRNTYLHWYQQKPGQAPRLLIYKVSNRFPGVPDRFSGSGSGTDFTLKISRVEAEDVGVYYCAQGTSVPFTFGQGTKLEIK
B16: H183/L072 VH D101A (antibody, name in Kabat numbering, V domains shown)
VH: QVQLVESGGGLVQPGRSLRLSCAASGFTFSNAWMHWVRQAPGKGLEWVAQIKDKGNAYAAYYAPSVKGRFTISRDDSKNSIYLQMNSLKTEDTAVYYCHYVHYASASTVLPAFGVAAWGQGTTVTVSS
VL: DIVMTQSPLSLPVTPGEPASISCQASQELVHMNRNTYLHWYQQKPGQAPRLLIYKVSNRFPGVPDRFSGSGSGTDFTLKISRVEAEDVGVYYCAQGTSVPFTFGQGTKLEIK
B17: H183/L072 VH A100fL (antibody, name in Kabat numbering, V domains shown)
VH: QVQLVESGGGLVQPGRSLRLSCAASGFTFSNAWMHWVRQAPGKGLEWVAQIKDKGNAYAAYYAPSVKGRFTISRDDSKNSIYLQMNSLKTEDTAVYYCHYVHYASASTVLPLFGVDAWGQGTTVTVSS
VL: DIVMTQSPLSLPVTPGEPASISCQASQELVHMNRNTYLHWYQQKPGQAPRLLIYKVSNRFPGVPDRFSGSGSGTDFTLKISRVEAEDVGVYYCAQGTSVPFTFGQGTKLEIK
B18: H183/L072 VH A100P (antibody, name in Kabat numbering, V domains shown)
VH: QVQLVESGGGLVQPGRSLRLSCAASGFTFSNAWMHWVRQAPGKGLEWVAQIKDKGNAYAAYYAPSVKGRFTISRDDSKNSIYLQMNSLKTEDTAVYYCHYVHYASPSTVLPAFGVDAWGQGTTVTVSS
VL: DIVMTQSPLSLPVTPGEPASISCQASQELVHMNRNTYLHWYQQKPGQAPRLLIYKVSNRFPGVPDRFSGSGSGTDFTLKISRVEAEDVGVYYCAQGTSVPFTFGQGTKLEIK
B19: H183/L072 VH A102M (antibody, name in Kabat numbering, V domains shown)
VH: QVQLVESGGGLVQPGRSLRLSCAASGFTFSNAWMHWVRQAPGKGLEWVAQIKDKGNAYAAYYAPSVKGRFTISRDDSKNSIYLQMNSLKTEDTAVYYCHYVHYASASTVLPAFGVDMWGQGTTVTVSS
VL: DIVMTQSPLSLPVTPGEPASISCQASQELVHMNRNTYLHWYQQKPGQAPRLLIYKVSNRFPGVPDRFSGSGSGTDFTLKISRVEAEDVGVYYCAQGTSVPFTFGQGTKLEIK
B20: H183/L072 VH D52aY (antibody, name in Kabat numbering, V domains shown)
VH: QVQLVESGGGLVQPGRSLRLSCAASGFTFSNAWMHWVRQAPGKGLEWVAQIKYKGNAYAAYYAPSVKGRFTISRDDSKNSIYLQMNSLKTEDTAVYYCHYVHYASASTVLPAFGVDAWGQGTTVTVSS
VL: DIVMTQSPLSLPVTPGEPASISCQASQELVHMNRNTYLHWYQQKPGQAPRLLIYKVSNRFPGVPDRFSGSGSGTDFTLKISRVEAEDVGVYYCAQGTSVPFTFGQGTKLEIK

The experiment deals with T1, Human CD137 ECD (human).
T1 construct: also called 4-1BB
T1 sequence (chain, as listed by the source limits assumed): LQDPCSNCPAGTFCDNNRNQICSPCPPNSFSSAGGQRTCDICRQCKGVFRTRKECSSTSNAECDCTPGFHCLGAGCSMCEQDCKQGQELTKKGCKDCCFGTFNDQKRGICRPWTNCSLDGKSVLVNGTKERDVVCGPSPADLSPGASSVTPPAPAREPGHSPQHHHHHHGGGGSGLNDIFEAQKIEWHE
Briefly: single mutant vs template dBBDu183H.
Take B1: the “fold change of affinity” value was found to be 0.7 fold.

B2: the “fold change of affinity” value came to 0 fold.

B3: the “fold change of affinity” value amounted to 0.2 fold. B4: the “fold change of affinity” value was found to be 0.3 fold. Under B5 stands 0 fold; under B6, 0 fold.

As for B7, the “fold change of affinity” value was found to be 0.2 fold.

B8: the “fold change of affinity” value turned out to be 0.5 fold. On to B9, for which the “fold change of affinity” value stood at 0.3 fold. Under B10 stands 0 fold. Turning to B11, the “fold change of affinity” value is 0 fold. Under B12 stands 0 fold.

With B13, the “fold change of affinity” value came to 0.9 fold.

B14: the “fold change of affinity” value came out at 0.5 fold. On to B15, for which the “fold change of affinity” value is 0.4 fold.

Consider B16, for which the “fold change of affinity” value worked out at 2 fold. Consider B17, for which the “fold change of affinity” value was 0 fold. Take B18: the “fold change of affinity” value came to 0.3 fold. Under B19 stands 0 fold; under B20, 0 fold.
